The numbers were not newly measured in publication PMC9206673, which cites them from elsewhere.

Series [1] has as its target gephyrin-binding peptide.
The target in series [2] is neurotransmitter receptor peptide.

Chain of Gephyrin (Q8BUV3 whole entry): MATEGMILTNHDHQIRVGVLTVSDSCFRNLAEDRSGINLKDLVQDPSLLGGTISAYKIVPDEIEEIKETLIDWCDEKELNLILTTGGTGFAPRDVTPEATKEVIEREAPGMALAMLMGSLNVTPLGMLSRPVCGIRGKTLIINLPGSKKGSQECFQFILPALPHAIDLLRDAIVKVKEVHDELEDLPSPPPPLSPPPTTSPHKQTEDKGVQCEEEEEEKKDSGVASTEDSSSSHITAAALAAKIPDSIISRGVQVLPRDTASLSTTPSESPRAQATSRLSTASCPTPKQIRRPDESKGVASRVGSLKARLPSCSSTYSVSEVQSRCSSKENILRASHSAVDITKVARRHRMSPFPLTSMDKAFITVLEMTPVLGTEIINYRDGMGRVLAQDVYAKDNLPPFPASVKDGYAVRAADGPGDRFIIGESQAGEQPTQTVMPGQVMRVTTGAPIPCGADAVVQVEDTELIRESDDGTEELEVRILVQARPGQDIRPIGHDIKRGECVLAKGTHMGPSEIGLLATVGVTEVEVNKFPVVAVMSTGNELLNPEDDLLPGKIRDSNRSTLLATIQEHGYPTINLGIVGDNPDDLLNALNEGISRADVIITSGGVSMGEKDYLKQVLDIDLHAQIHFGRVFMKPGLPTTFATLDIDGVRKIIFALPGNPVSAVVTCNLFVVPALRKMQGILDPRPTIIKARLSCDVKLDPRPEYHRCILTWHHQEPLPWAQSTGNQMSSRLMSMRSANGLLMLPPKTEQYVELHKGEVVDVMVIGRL

A word on the Kd: it is the concentration at which binding is half-saturated. For Gephyrin (from UniProt Q8BUV3), the Kd is 0.14 nM in series [1] and 140 nM in series [2].
